The target of test [1] is T1, D2H receptor domain (human D2H transporter, amino acid residues 387-685), His-tag fusion protein (human, UniProt Q07837 387-685).
T1 construct: purified under denaturing conditions; also called recombinant D2H; not shown: poly-histidine tag (pET vector) at the NH2-terminal end
T1 sequence: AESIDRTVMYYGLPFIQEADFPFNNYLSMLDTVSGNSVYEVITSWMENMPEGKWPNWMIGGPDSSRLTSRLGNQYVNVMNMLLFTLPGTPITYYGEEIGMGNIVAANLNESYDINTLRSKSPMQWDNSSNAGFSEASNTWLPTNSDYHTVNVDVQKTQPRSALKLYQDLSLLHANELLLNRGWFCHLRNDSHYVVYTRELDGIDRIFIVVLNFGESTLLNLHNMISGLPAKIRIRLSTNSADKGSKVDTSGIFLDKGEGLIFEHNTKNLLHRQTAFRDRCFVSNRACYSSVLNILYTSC
Briefly: phage ELISA, plate coated with D2H domain. How it is done: (§1) 6.6. Receptor ELISA Procedure 96 well plates were coated overnight with GIT receptor, BSA and, optionally, IDE (insulin degrading enzyme, an irrelevant His-fusion protein)or hTF. The plates were blocked for one hour with 0.5% BSA-PBS. After clarification, the amplified phage were diluted 1:100 in […] plus 0.05% Tween 20 in PBS and added to the plates. Following incubation of the plates on a rotator for 1 to 2 hours, the plates were washed 5 times with 1% BSA plus 0.05% Tween 20 in PBS. […] After the plates were washed 5 times, as described above, TMB substrate was added to the wells. The plates were read at 650 nm absorbance.
Binding to fixed Caco-2 cells, D2H and BSA was examined.
A general note: In an ELISA, binding on a coated surface is turned into a signal by an enzyme label.

For test [2], the target named is T2, hPEPT1 receptor domain (human PEPT1, amino acid residues 391-571), His-tag fusion protein (human, UniProt P46059 391-571).
T2 construct: purified under denaturing conditions; also called recombinant hPEPT1; not shown: poly-histidine tag (pET vector) at the NH2-terminal end
T2 sequence: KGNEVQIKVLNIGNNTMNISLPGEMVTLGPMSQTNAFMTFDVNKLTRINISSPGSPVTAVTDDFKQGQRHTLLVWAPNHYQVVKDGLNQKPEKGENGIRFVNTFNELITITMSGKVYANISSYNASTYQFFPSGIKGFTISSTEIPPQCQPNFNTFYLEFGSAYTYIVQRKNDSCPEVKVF
Briefly: phage ELISA, OD on hPEPT1 over OD on BSA. How it is done:
as §1

Test [3] addresses T2, hPEPT1 receptor domain (human PEPT1, …). Briefly: phage ELISA, plate coated with hPEPT1 domain.
The target in test [4] is T3, HPT1 receptor domain (human intestinal peptide-associated transporter HPT1, amino acid residues 29-273), … (human, UniProt Q12864 29-273).
T3 construct: purified under denaturing conditions; also called recombinant HPT1; not shown: poly-histidine tag (pET vector) at the NH2-terminal end
T3 sequence: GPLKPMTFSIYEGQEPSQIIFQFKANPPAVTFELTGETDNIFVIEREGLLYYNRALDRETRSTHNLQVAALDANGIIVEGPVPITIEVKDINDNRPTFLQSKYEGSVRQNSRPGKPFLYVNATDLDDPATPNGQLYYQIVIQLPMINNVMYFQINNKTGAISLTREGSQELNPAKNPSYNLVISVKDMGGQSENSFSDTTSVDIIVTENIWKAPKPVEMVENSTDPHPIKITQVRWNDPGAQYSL
Briefly: phage ELISA, OD on HPT1 over OD on BSA. The method, then: as §1

B1: DCX39 (peptide)
peptide: SGSLNAWQPRSWVGGAFRSHANNNLNPKPTMVTRHPTAETVESCLAKPHTENSFTNVWKDDKTLDRYANYEGCLWNATGVVVCTGDETQCYGTWVPIGLAIPENEGGGSEGGGSEGGGSEGGGTKPPEYGDTPIPGYTYINPLDGTYPPGTEQNPANPNPSLEESQPLNTFMFQNNRFRNRQGALTVYTGTVTQGTDPVKTYYQYTPVSSKAMYDAYWNGKFRDCAFHSGFNEDPFVCEYQGQSSDLPQPPVNAGGGSGGGSGGGSEGGGSEGGGSEGGGSEGGGSGGGSGSGDFDYEKMANANKGAMTENADENALQSDAKGKLDSVATDYGAAIDGFIGDVSGLANGNGATGDFAGSNSQMAQVGDGDNSPLMNNFRQYLPSLPQSVECRPFVFSAGKPYEFSIDCDKINLFRGVFAFLLYVATFMYVFSTFANILRNKES
notes: Assayed as M13 phage clone displaying the insert
In the case of B1, in test [1], the OD worked out at 0.299 OD.

B2: P31 (peptide)
peptide: SARDSGPAEDGSRAVRLNGVENANTRKSSRSNPRGRRHPAETVESCLAKPHTENSFTNVWKDDKTLDRYANYEGCLWNATGVVVCTGDETQCYGTWVPIGLAIPENEGGGSEGGGSEGGGSEGGGTKPPEYGDTPIPGYTYINPLDGTYPPGTEQNPANPNPSLEESQPLNTFMFQNNRFRNRQGALTVYTGTVTQGTDPVKTYYQYTPVSSKAMYDAYWNGKFRDCAFHSGFNEDPFVCEYQGQSSDLPQPPVNAGGGSGGGSGGGSEGGGSEGGGSEGGGSEGGGSGGGSGSGDFDYEKMANANKGAMTENADENALQSDAKGKLDSVATDYGAAIDGFIGDVSGLANGNGATGDFAGSNSQMAQVGDGDNSPLMNNFRQYLPSLPQSVECRPFVFSAGKPYEFSIDCDKINLFRGVFAFLLYVATFMYVFSTFANILRNKES
notes: as for B1
In turn, B2 registered a PEPT1/BSA in test [2] of 11 ratio. In addition, the OD in test [3] came to 0.807 OD.

B3: HCA3 (peptide)
peptide: RHISEYSFANSHLMGGESKRKGCGINGSFSPTCPRSPTPAFRRTAETVESCLAKPHTENSFTNVWKDDKTLDRYANYEGCLWNATGVVVCTGDETQCYGTWVPIGLAIPENEGGGSEGGGSEGGGSEGGGTKPPEYGDTPIPGYTYINPLDGTYPPGTEQNPANPNPSLEESQPLNTFMFQNNRFRNRQGALTVYTGTVTQGTDPVKTYYQYTPVSSKAMYDAYWNGKFRDCAFHSGFNEDPFVCEYQGQSSDLPQPPVNAGGGSGGGSGGGSEGGGSEGGGSEGGGSEGGGSGGGSGSGDFDYEKMANANKGAMTENADENALQSDAKGKLDSVATDYGAAIDGFIGDVSGLANGNGATGDFAGSNSQMAQVGDGDNSPLMNNFRQYLPSLPQSVECRPFVFSAGKPYEFSIDCDKINLFRGVFAFLLYVATFMYVFSTFANILRNKES
notes: as for B1
For B3, the HPT1/BSA in test [4] amounted to 1 ratio.

B4: DCX33 (peptide)
peptide: RWNWTVLPATGGHYWTRSTDYHAINNHRPSIPHQHPTPIAETVESCLAKPHTENSFTNVWKDDKTLDRYANYEGCLWNATGVVVCTGDETQCYGTWVPIGLAIPENEGGGSEGGGSEGGGSEGGGTKPPEYGDTPIPGYTYINPLDGTYPPGTEQNPANPNPSLEESQPLNTFMFQNNRFRNRQGALTVYTGTVTQGTDPVKTYYQYTPVSSKAMYDAYWNGKFRDCAFHSGFNEDPFVCEYQGQSSDLPQPPVNAGGGSGGGSGGGSEGGGSEGGGSEGGGSEGGGSGGGSGSGDFDYEKMANANKGAMTENADENALQSDAKGKLDSVATDYGAAIDGFIGDVSGLANGNGATGDFAGSNSQMAQVGDGDNSPLMNNFRQYLPSLPQSVECRPFVFSAGKPYEFSIDCDKINLFRGVFAFLLYVATFMYVFSTFANILRNKES
notes: as for B1
Consider B4, for which the OD in test [1] is 0.616 OD.

B5: DCX26 (peptide)
peptide: SGRTTSEISGLWGWGDDRSGYGWGNTLRPNYIPYRQATNRHRYTAETVESCLAKPHTENSFTNVWKDDKTLDRYANYEGCLWNATGVVVCTGDETQCYGTWVPIGLAIPENEGGGSEGGGSEGGGSEGGGTKPPEYGDTPIPGYTYINPLDGTYPPGTEQNPANPNPSLEESQPLNTFMFQNNRFRNRQGALTVYTGTVTQGTDPVKTYYQYTPVSSKAMYDAYWNGKFRDCAFHSGFNEDPFVCEYQGQSSDLPQPPVNAGGGSGGGSGGGSEGGGSEGGGSEGGGSEGGGSGGGSGSGDFDYEKMANANKGAMTENADENALQSDAKGKLDSVATDYGAAIDGFIGDVSGLANGNGATGDFAGSNSQMAQVGDGDNSPLMNNFRQYLPSLPQSVECRPFVFSAGKPYEFSIDCDKINLFRGVFAFLLYVATFMYVFSTFANILRNKES
notes: as for B1
Take B5: the OD in test [1] was 0.956 OD.

B6: DCX45 (peptide)
peptide: SVGNDKTSRPVSFYGRVSDLWNASLMPKRTPSSKRHDDGAETVESCLAKPHTENSFTNVWKDDKTLDRYANYEGCLWNATGVVVCTGDETQCYGTWVPIGLAIPENEGGGSEGGGSEGGGSEGGGTKPPEYGDTPIPGYTYINPLDGTYPPGTEQNPANPNPSLEESQPLNTFMFQNNRFRNRQGALTVYTGTVTQGTDPVKTYYQYTPVSSKAMYDAYWNGKFRDCAFHSGFNEDPFVCEYQGQSSDLPQPPVNAGGGSGGGSGGGSEGGGSEGGGSEGGGSEGGGSGGGSGSGDFDYEKMANANKGAMTENADENALQSDAKGKLDSVATDYGAAIDGFIGDVSGLANGNGATGDFAGSNSQMAQVGDGDNSPLMNNFRQYLPSLPQSVECRPFVFSAGKPYEFSIDCDKINLFRGVFAFLLYVATFMYVFSTFANILRNKES
notes: as for B1
Molecule B6 came in with an OD in test [1] of 0.336 OD.

B7: DCX36 (peptide)
peptide: SWSSWNWSSKTTRLGDRATREGCGPSQSDGCPYNGRLTTVKPRTAETVESCLAKPHTENSFTNVWKDDKTLDRYANYEGCLWNATGVVVCTGDETQCYGTWVPIGLAIPENEGGGSEGGGSEGGGSEGGGTKPPEYGDTPIPGYTYINPLDGTYPPGTEQNPANPNPSLEESQPLNTFMFQNNRFRNRQGALTVYTGTVTQGTDPVKTYYQYTPVSSKAMYDAYWNGKFRDCAFHSGFNEDPFVCEYQGQSSDLPQPPVNAGGGSGGGSGGGSEGGGSEGGGSEGGGSEGGGSGGGSGSGDFDYEKMANANKGAMTENADENALQSDAKGKLDSVATDYGAAIDGFIGDVSGLANGNGATGDFAGSNSQMAQVGDGDNSPLMNNFRQYLPSLPQSVECRPFVFSAGKPYEFSIDCDKINLFRGVFAFLLYVATFMYVFSTFANILRNKES
notes: as for B1
As for B7, in test [1], the OD stood at 0.293 OD.

B8: DCX42 (peptide)
peptide: RYSGLSPRDNGPACSQEATLEGCGAQRLMSTRRKGRNSRPGWTLAETVESCLAKPHTENSFTNVWKDDKTLDRYANYEGCLWNATGVVVCTGDETQCYGTWVPIGLAIPENEGGGSEGGGSEGGGSEGGGTKPPEYGDTPIPGYTYINPLDGTYPPGTEQNPANPNPSLEESQPLNTFMFQNNRFRNRQGALTVYTGTVTQGTDPVKTYYQYTPVSSKAMYDAYWNGKFRDCAFHSGFNEDPFVCEYQGQSSDLPQPPVNAGGGSGGGSGGGSEGGGSEGGGSEGGGSEGGGSGGGSGSGDFDYEKMANANKGAMTENADENALQSDAKGKLDSVATDYGAAIDGFIGDVSGLANGNGATGDFAGSNSQMAQVGDGDNSPLMNNFRQYLPSLPQSVECRPFVFSAGKPYEFSIDCDKINLFRGVFAFLLYVATFMYVFSTFANILRNKES
notes: as for B1
In test [1], B8 gave an OD of 0.158 OD.

B9: P90 (peptide)
peptide: SSADAEKCAGSLLWWGRQNNSGCGSPTKKHLKHRNRSQTSSSSHAETVESCLAKPHTENSFTNVWKDDKTLDRYANYEGCLWNATGVVVCTGDETQCYGTWVPIGLAIPENEGGGSEGGGSEGGGSEGGGTKPPEYGDTPIPGYTYINPLDGTYPPGTEQNPANPNPSLEESQPLNTFMFQNNRFRNRQGALTVYTGTVTQGTDPVKTYYQYTPVSSKAMYDAYWNGKFRDCAFHSGFNEDPFVCEYQGQSSDLPQPPVNAGGGSGGGSGGGSEGGGSEGGGSEGGGSEGGGSGGGSGSGDFDYEKMANANKGAMTENADENALQSDAKGKLDSVATDYGAAIDGFIGDVSGLANGNGATGDFAGSNSQMAQVGDGDNSPLMNNFRQYLPSLPQSVECRPFVFSAGKPYEFSIDCDKINLFRGVFAFLLYVATFMYVFSTFANILRNKES
notes: as for B1
In turn, B9 had a PEPT1/BSA in test [2] of 9 ratio. The OD in test [3] worked out at 1.12 OD.

For the origin of these results see patent publication US6703362 (CYTOGEN, dated 2004).
